# B1: 5'-FITC 20 bp dsDNA (40% GC) (dsDNA)
# DNA 1: AGTTTAGTGCGCTAATCTGA
# DNA 2: TCAGATTAGCGCACTAAACT
# B2: 5'-FITC 40 bp dsDNA (dsDNA)
# DNA 1: TTGATTACCGTCAGTTGGAGCCCATATTATACATGAAGAC
# DNA 2: GTCTTCATGTATAATATGGGCTCCAACTGACGGTAATCAA
# B3: 5'-FITC 60 bp dsDNA (dsDNA)
# DNA 1: TCACTCAAGAAGCAGACACAGTAAGACACGGTTTAGCTGATTGTTTATCGATTAGGTCAA
# DNA 2: TTGACCTAATCGATAAACAATCAGCTAAACCGTGTCTTACTGTGTCTGCTTCTTGAGTGA
# B4: d(CG)10 duplex, 100% GC (dsDNA)
# DNA 1: CGCGCGCGCGCGCGCGCGCG
# DNA 2: CGCGCGCGCGCGCGCGCGCG
# Experiments:
# [1] = molecular target: TS-CbFic2 (Coxiella burnetii, UniProt Q83DB6 1-378); assay: fluorescence anisotropy; Hill 1.082; settings: protein: recombinant; tags: N-terminal Twin-Strep + EK site (G-H-M-TS-G-A-EK-H-M); label: 5'-FITC on one strand
# [2] = molecular target: T1, CbFic2 (Coxiella burnetii, UniProt Q83DB6 1-378); assay: fluorescence anisotropy; Hill 1.354; settings: protein: recombinant; tags: N-terminal G-H-M remnant after TEV cleavage; label: 5'-FITC on one strand
# [3] = molecular target: T1, CbFic2; assay: fluorescence anisotropy; Hill 0.772; settings: protein: recombinant; tags: N-terminal G-H-M remnant after TEV cleavage; label: 5'-FITC on one strand
# [4] = molecular target: T1, CbFic2; assay: fluorescence anisotropy; Hill 0.988; settings: protein: recombinant; tags: N-terminal G-H-M remnant after TEV cleavage; label: 5'-FITC on one strand
# [5] = molecular target: T1, CbFic2; assay: circular dichroism; settings: protein: recombinant; tags: N-terminal G-H-M remnant after TEV cleavage; blunt, self-complementary, 2 copies
binder,measurement,setting,value
B1,Kd,[1],116 nM
same,Kd,[2],220 nM
B2,Kd,[3],108 nM
B3,Kd,[4],36.5 nM
B4,binding result,[5],binds

# — paper PMC10628234
